Experimental data as given in publication PMC8750359.

How the values were obtained:
[1] = immunoblot of total NKCC2 ± ManIA co-expression, HEK cells; conditions: glycan lost; control: WT NKCC2
[2] = immunoblot of NKCC2 ± ManIA co-expression, OKP cells; conditions: glycan changed form; control: untreated cells

B1: NKCC2: N442Q/N452Q (protein)
parent chain: MSVSIPSNSVPSSASRFQVHVINEGHGSAAAVGDSADPPHYEETSFGDEAQNRLRISFRPGNQECYDNFLQTGETAKTDTTFHAYDSHTNTYYLQTFGHNTMDAVPKIEYYRNTGSVSGPKVNRPSLLEIHEQLAKNVTVAPGSADRVANGDGMPGDEQAENKEEDMTGVVKFGWVKGVLVRCMLNIWGVMLFIRLSWIVGEAGIGLGVLIILLSTMVTSITGLSTSAIATNGFVRGGGAYYLISRSLGPEFGGSIGLIFAFANAVAVAMYVVGFAETVVDLLKESDSMMVDPTNDIRIIGSITVVILLGISVAGMEWEAKAQVILLVILLIAIANFFIGTVIPSNNEKKSRGFFNYQASIFAENFGPSFTKGEGFFSVFAIFFPAATGILAGANISGDLEDPQDAIPRGTMLAIFITTVAYIGVAICVAACVVRDATGSMNDTIVSGMNCNGSAACGLGYDFSRCQHEPCQYGLMNNFQVMSMVSGFGPLITAGIFSATLSSALASLVSAPKVFQALCKDNIFKGLQFFAKGYGKNNEPLRGYFLTFVIAMAFILIAELNVIAPIISNFFLASYALINFSCFHASYAKSPGWRPAYGIYNMWVSLFGAILCCAVMFVINWWAAVITYVIELFLYIYVTYKKPDVNWGSSTQALSYVSALDNALELTTVEDHVKNFRPQCIVLTGGPMTRPALLDITHAFTKNSGLCICCEVFVGPRKLCVKEMNSGMAKKQAWLIKNKIKAFYAAVAADCFRDGVRSLLQASGLGRMKPNTLVIGYKKNWRKAPLSELENYVGIIHDAFDFEIGVVIVRISQGFDISPVLQVQDELEKLEQERLALEAAIKDNECEEGKGGIRGLFKKAGKLNITKPAPKKDGNISSIQSMHVGEFNQKLVEASAQFKKKQGKGTIDVWWLFDDGGLTLLIPYILTLRKKWKDCKLRIYVGGKITRIEEEKISMASLLSKFRIKFADIHIIGDINIKPNKESWKVFEEMIEPYRLHESHKDLTTAEKLKRESPWKITDAELEAVKEKSYRQVRLNELLQEHSRAANLIVLSLPVARKGSISDLLYMAWLEILTKNLPPVLLVRGNHKNVLTFYS
For B1, the “other: ManIA-induced down-regulation of NKCC2 protein” value [1] was “decreases”.

B2: NKCC2: kifunensine 25 µM, 6 h (protein)
parent chain: MSVSIPSNSVPSSASRFQVHVINEGHGSAAAVGDSADPPHYEETSFGDEAQNRLRISFRPGNQECYDNFLQTGETAKTDTTFHAYDSHTNTYYLQTFGHNTMDAVPKIEYYRNTGSVSGPKVNRPSLLEIHEQLAKNVTVAPGSADRVANGDGMPGDEQAENKEEDMTGVVKFGWVKGVLVRCMLNIWGVMLFIRLSWIVGEAGIGLGVLIILLSTMVTSITGLSTSAIATNGFVRGGGAYYLISRSLGPEFGGSIGLIFAFANAVAVAMYVVGFAETVVDLLKESDSMMVDPTNDIRIIGSITVVILLGISVAGMEWEAKAQVILLVILLIAIANFFIGTVIPSNNEKKSRGFFNYQASIFAENFGPSFTKGEGFFSVFAIFFPAATGILAGANISGDLEDPQDAIPRGTMLAIFITTVAYIGVAICVAACVVRDATGSMNDTIVSGMNCNGSAACGLGYDFSRCQHEPCQYGLMNNFQVMSMVSGFGPLITAGIFSATLSSALASLVSAPKVFQALCKDNIFKGLQFFAKGYGKNNEPLRGYFLTFVIAMAFILIAELNVIAPIISNFFLASYALINFSCFHASYAKSPGWRPAYGIYNMWVSLFGAILCCAVMFVINWWAAVITYVIELFLYIYVTYKKPDVNWGSSTQALSYVSALDNALELTTVEDHVKNFRPQCIVLTGGPMTRPALLDITHAFTKNSGLCICCEVFVGPRKLCVKEMNSGMAKKQAWLIKNKIKAFYAAVAADCFRDGVRSLLQASGLGRMKPNTLVIGYKKNWRKAPLSELENYVGIIHDAFDFEIGVVIVRISQGFDISPVLQVQDELEKLEQERLALEAAIKDNECEEGKGGIRGLFKKAGKLNITKPAPKKDGNISSIQSMHVGEFNQKLVEASAQFKKKQGKGTIDVWWLFDDGGLTLLIPYILTLRKKWKDCKLRIYVGGKITRIEEEKISMASLLSKFRIKFADIHIIGDINIKPNKESWKVFEEMIEPYRLHESHKDLTTAEKLKRESPWKITDAELEAVKEKSYRQVRLNELLQEHSRAANLIVLSLPVARKGSISDLLYMAWLEILTKNLPPVLLVRGNHKNVLTFYS
With B2 the “other: ManIA-induced down-regulation of NKCC2 protein” value [2] was “decreases”.
